Values of other authors as cited in article PMC5650668.
pKd: −log10 of the molar value. Read-outs that look alike come from different tables or passages of the source.

Columns and labels:
[1] = target: ω-agatoxin IVA (Agelenopsis aperta) (UniProt P30288)
[2] = target: ω-agatoxin IVA (Agelenopsis aperta) (UniProt P30288); remark: listed apart in the source

Sequence of UniProt P30288 (P30288 whole entry): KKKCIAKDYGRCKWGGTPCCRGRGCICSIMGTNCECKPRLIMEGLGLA

## Cav2.1 (P current component) (from UniProt P54282)
[1]
  pKd: 8.70

## Cav2.1 (Q current component) (from UniProt P54282)
[2]
  pKd: < 7.00
